Results taken from patent US20120322150.

What was measured:
MBP-BZR1, Q8S307 = target: T1, MBP-BZR1, Q8S307
T1 chain: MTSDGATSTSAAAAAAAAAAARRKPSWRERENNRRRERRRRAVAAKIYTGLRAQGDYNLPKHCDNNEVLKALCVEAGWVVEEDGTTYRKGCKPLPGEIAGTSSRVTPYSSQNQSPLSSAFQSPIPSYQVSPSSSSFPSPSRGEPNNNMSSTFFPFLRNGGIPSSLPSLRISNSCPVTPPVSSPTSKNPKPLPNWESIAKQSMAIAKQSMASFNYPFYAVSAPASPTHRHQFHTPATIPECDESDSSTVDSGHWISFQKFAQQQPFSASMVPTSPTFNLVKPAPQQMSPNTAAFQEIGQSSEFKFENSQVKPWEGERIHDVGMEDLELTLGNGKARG

GST-BIN2, Q39011 = target: T2, GST-BIN2, Q39011
T2 chain: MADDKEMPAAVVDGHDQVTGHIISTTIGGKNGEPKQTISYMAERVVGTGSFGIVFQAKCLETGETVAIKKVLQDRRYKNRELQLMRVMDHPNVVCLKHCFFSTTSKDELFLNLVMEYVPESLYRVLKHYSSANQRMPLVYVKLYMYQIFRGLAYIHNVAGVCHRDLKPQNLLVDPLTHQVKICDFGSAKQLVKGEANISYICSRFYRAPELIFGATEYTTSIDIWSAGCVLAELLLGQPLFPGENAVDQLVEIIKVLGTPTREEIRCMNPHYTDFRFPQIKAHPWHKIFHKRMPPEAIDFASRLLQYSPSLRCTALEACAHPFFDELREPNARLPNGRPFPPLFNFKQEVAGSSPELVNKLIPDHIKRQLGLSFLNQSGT

[1] = target: T3, GST-BSU1-KL (N-terminal Kelch domain)
T3 chain: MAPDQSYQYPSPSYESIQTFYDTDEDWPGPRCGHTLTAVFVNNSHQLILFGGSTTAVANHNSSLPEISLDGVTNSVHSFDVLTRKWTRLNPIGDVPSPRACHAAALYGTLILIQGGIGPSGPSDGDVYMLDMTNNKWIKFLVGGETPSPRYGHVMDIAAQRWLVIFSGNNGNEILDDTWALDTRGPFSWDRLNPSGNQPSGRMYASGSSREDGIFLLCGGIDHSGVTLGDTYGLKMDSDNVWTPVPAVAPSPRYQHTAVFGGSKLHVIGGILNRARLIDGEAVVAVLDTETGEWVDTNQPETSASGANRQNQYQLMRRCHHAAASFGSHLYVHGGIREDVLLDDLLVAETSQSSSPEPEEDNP

B1: GST-AtSK12 (protein)
chain: MASVGIEPSAAVRESTGNVTDADRLPEEMKDMKIQDDKEMEATIVNGNVTETGHIIVTTIGGRNGQPKQTISYMAERVVGHGSFGVVFQAKCLETGETVAIKKVLQDRRYKNRELQTMRLLDHPNVVSLKHCFFSTTEKDELYLNLVLEYVPETVHRVIKHYNKLNQRMPLVYVKLYTYQIFRSLSYIHRCIGVCHRDIKPQNLLVNPHTHQVKLCDFGSAKVLVKGEPNISYICSRYYRAPELIFGATEYTTAIDVWSAGCVLAELLLGQPLFPGESGVDQLVEIIKVLGTPTREEIKCMNPNYTEFKFPQIKAHPWHKIFHKRMPPEAVDLVSRLLQYSPNLRCAALDSLVHPFFDELRDPNARLPNGRFLPPLFNFKPHELKGVPVEMVAKLVPEHARKQCPWLSL
phosphorylation of MBP-BZR1 (in vitro kinase assay with 32P-γATP) (MBP-BZR1, Q8S307): AtSK12 strongly phosphorylates BZR1 in vitro

B2: GST-BSU1-P (C-terminal phosphatase domain) (protein)
chain: DNYMLLDDYLMDEPKPLSSEPEASSFIMRSTSEIAMDRLAEAHNLPTIENAFYDSAIEGYVPLQHGAETVGNRGGLVRTASLDQSTQDLHKKVISTLLRPKTWTPPANRDFFLSYLEVKHLCDEVEKIFMNEPTLLQLKVPIKVFGDIHGQYGDLMRLFHEYGHPSVEGDITHIDYLFLGDYVDRGQHSLEIIMLLFALKIEYPKNIHLIRGNHESLAMNRIYGFLTECEERMGESYGFEAWLKINQVFDYLPLAALLEKKVLCVHGGIGRAVTIEEIENIERPAFPDTGSMVLKDILWSDPTMNDTVLGIVDNARGEGVVSFGPDIVKAFLERNGLEMILRAHECVIDGFERFADGRLITVFSATNYCGTAQNAGAILVIGRDMVIYPKLIHPHPPPISSSEEDYTDKAWMQELNIEMPPTPARGESSE
BIN2 phosphorylation of MBP-BZR1 (in vitro kinase assay with 32P-γATP) (GST-BIN2, Q39011): The phosphatase domain of BSU1 reduced BIN2 phosphorylation of BZR1

B3: GST-BIN2 (protein)
chain: MADDKEMPAAVVDGHDQVTGHIISTTIGGKNGEPKQTISYMAERVVGTGSFGIVFQAKCLETGETVAIKKVLQDRRYKNRELQLMRVMDHPNVVCLKHCFFSTTSKDELFLNLVMEYVPESLYRVLKHYSSANQRMPLVYVKLYMYQIFRGLAYIHNVAGVCHRDLKPQNLLVDPLTHQVKICDFGSAKQLVKGEANISYICSRFYRAPELIFGATEYTTSIDIWSAGCVLAELLLGQPLFPGENAVDQLVEIIKVLGTPTREEIRCMNPHYTDFRFPQIKAHPWHKIFHKRMPPEAIDFASRLLQYSPSLRCTALEACAHPFFDELREPNARLPNGRPFPPLFNFKQEVAGSSPELVNKLIPDHIKRQLGLSFLNQSGT
BIN2 phosphorylation of MBP-BZR1 (in vitro kinase assay with 32P-γATP) [1]: the Kelch repeat domain showed no effect
